Results taken from article PMC4822050.

Columns and labels:
SRA-Spacer = target: T1, SRA-Spacer (human, UniProt Q96T88 414-674); assay: FP; ITC: 10 mM HEPES pH 8.0, 100 mM NaCl, 18 C; EMSA: 20 mM HEPES pH 7.5, 100 mM NaCl, 8% glycerol, 1 mM DTT, on ice; pull-down: 20 mM HEPES-NaOH pH 8.0, 100 mM NaC
T1 sequence: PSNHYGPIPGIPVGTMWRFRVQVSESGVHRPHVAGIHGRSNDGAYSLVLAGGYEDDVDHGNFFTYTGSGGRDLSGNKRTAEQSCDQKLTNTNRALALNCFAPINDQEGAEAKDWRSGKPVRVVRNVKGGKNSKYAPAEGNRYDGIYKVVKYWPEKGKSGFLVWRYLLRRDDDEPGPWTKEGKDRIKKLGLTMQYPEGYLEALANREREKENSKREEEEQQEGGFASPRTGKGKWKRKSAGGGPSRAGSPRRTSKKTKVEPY

UHRF1 deltaTTD = target: T2, UHRF1 deltaTTD (human, UniProt Q96T88 1-793, del134-285); assay: as above
T2 sequence: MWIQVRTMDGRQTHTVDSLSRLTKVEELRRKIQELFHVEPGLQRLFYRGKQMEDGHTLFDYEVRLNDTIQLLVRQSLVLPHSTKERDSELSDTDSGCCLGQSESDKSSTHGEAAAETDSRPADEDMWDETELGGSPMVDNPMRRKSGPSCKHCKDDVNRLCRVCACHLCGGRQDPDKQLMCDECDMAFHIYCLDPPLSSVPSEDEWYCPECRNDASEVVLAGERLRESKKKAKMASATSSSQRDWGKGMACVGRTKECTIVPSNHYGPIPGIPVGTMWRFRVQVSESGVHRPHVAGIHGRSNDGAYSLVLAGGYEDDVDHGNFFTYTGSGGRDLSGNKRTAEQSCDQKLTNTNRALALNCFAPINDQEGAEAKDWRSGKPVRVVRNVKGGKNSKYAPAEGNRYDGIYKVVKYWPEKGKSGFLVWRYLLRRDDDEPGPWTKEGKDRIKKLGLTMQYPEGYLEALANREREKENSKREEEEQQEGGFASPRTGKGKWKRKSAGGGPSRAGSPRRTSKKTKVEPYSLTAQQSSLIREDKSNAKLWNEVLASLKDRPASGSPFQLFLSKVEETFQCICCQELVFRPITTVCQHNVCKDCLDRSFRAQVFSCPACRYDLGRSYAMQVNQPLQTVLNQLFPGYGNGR

B1: FAM-12bp-HM-DNA (dsDNA)
DNA 1: CCATGCGCTGAC
DNA 2: GTCAGCGCATGG
modifications: 5-methyl-dC at position 6 of strand 2 (GTCAGXGCATGG)
- Kd (SRA-Spacer): 490 ± 80 nM
- Kd (UHRF1 deltaTTD): 490 ± 80 nM
